We go through 7 molecules from publication PMC9699676, “Host nucleases generate prespacers for primed adaptation in the E. coli type I-E CRISPR-Cas system”.

Data set [1] has as its target T1, Cas1;Cas2 (Escherichia coli;Escherichia coli, UniProt Q46896;P45956 1-305;1-94, |).
T1 sequence 1: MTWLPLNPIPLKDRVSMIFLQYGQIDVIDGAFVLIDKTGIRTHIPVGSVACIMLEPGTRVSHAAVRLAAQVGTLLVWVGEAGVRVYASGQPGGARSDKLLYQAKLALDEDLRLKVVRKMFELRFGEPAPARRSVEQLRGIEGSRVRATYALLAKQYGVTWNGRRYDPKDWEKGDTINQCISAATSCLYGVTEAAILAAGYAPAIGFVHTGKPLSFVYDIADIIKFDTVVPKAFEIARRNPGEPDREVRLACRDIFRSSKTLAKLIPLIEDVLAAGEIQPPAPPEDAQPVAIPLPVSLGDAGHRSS
T1 sequence 2: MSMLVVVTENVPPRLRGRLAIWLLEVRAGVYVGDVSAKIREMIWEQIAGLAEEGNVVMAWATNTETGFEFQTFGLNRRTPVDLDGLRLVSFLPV
In words: EMSA; preannealed; reference for substrate 10; 40 mM Tris-HCl pH 7.5, 50 mM NaCl, 10 mM MgCl2, 0.5 mM TCEP, 0.1 mg/ml BSA; EMSA (Fig. S9) 25 nM DNA, 2 uM Cas1-Cas2, 37 C 30 min; footprinting 0.2 uM DNA, 1.6. The note with it: protein: recombinant;recombinant; tags: ;; chain copies: 4;2; label: 5'-32P on strand 1; 23-bp duplex, 3' overhang 5 nt on each end. On the technique in general: A gel shift assay detects complexes by their altered migration in electrophoresis.

The target of data set [2] is T1, Cas1;Cas2. In words: exonuclease footprinting; RecJ with RecBC or RecBCD, 1 mM ATP; 33-nt product; 40 mM Tris-HCl pH 7.5, 50 mM NaCl, 10 mM MgCl2, 0.5 mM TCEP, 0.1 mg/ml BSA; EMSA (Fig. S9) 25 nM DNA, 2 uM Cas1-Cas2, 37 C 30 min; footprinting 0.2 uM DNA, 1.6. The note with it: protein: recombinant;recombinant; tags: ;; chain copies: 4;2; label: 3'-FAM on strand 1; fork; 23-bp duplex; extended 5' arm annealed to strand 3 as 15-bp blunt duplex.

For data set [3], the target named is T1, Cas1;Cas2. The experiment in a line: EMSA; preannealed; longer overhang stimulated binding; 40 mM Tris-HCl pH 7.5, 50 mM NaCl, 10 mM MgCl2, 0.5 mM TCEP, 0.1 mg/ml BSA; EMSA (Fig. S9) 25 nM DNA, 2 uM Cas1-Cas2, 37 C 30 min; footprinting 0.2 uM DNA, 1.6. The note with it: protein: recombinant;recombinant, tags: ;, chain copies: 4;2, label: 5'-32P on strand 1, 28-bp duplex.

Data set [4] addresses T1, Cas1;Cas2. In words: EMSA; strands added separately; 40 mM Tris-HCl pH 7.5, 50 mM NaCl, 10 mM MgCl2, 0.5 mM TCEP, 0.1 mg/ml BSA; EMSA (Fig. S9) 25 nM DNA, 2 uM Cas1-Cas2, 37 C 30 min; footprinting 0.2 uM DNA, 1.6. The note with it: protein: recombinant;recombinant, tags: ;, chain copies: 4;2, label: 5'-32P on strand 1, 33-bp duplex.
In data set [5] the target is T1, Cas1;Cas2. In words: EMSA; preannealed; 40 mM Tris-HCl pH 7.5, 50 mM NaCl, 10 mM MgCl2, 0.5 mM TCEP, 0.1 mg/ml BSA; EMSA (Fig. S9) 25 nM DNA, 2 uM Cas1-Cas2, 37 C 30 min; footprinting 0.2 uM DNA, 1.6. The note with it: protein: recombinant;recombinant; tags: ;; chain copies: 4;2; label: 5'-32P on strand 1; 28-bp duplex, single 3' overhang 5 nt.

B1: substrate 2 (dsDNA)
DNA 1: ATTTACTACTCGTTCTGGTGTTTCTCGT
DNA 2: AAACACCAGAACGAGTAGTAAATTGGGC
For the molecule B1, the binding result with Cas1;Cas2 [1] is on record as “binds”.

B2: double fork with 15-bp blunt end (Fig. 4B, S7) (dsDNA)
DNA 1: CCGCCTTAACCGGTCAACCTAAACATTTACCGCGCGATCGGGTGTTTGGTGA
DNA 2: CACAAAAACACCCGATCGCGCGGTAAATTGGGCTTGG
DNA 3: GACCGGTTAAGGCGG
B2: the binding result with Cas1;Cas2 [2] was “binds”.

B3: substrate 4 (dsDNA)
DNA 1: ATTTACTACTCGTTCTGGTGTTTCTCGT
DNA 2: ACGAGAAACACCAGAACGAGTAGTAAATTGGGCTT
On to B3, for which the binding result in the data set with Cas1;Cas2 [3] (single 3' overhang 7 nt with PAM) is “binds”.

B4: substrate 10 (33/37) (dsDNA)
DNA 1: GCCCAATTTACTACTCGTTCTGGTGTTTCTCGT
DNA 2: ACGAGAAACACCAGAACGAGTAGTAAATTGGGCTTGA
With B4, the binding signal in the data set with Cas1;Cas2 [4] (single 3' overhang 4 nt with PAM) was 18 fold more than preannealed.

B5: substrate 9 (33/35) (dsDNA)
DNA 1: GCCCAATTTACTACTCGTTCTGGTGTTTCTCGT
DNA 2: ACGAGAAACACCAGAACGAGTAGTAAATTGGGCTT
With B5, in the data set with Cas1;Cas2 [4] (single 3' overhang 2 nt with PAM), the binding signal is 5 fold more than preannealed.

B6: substrate 5 (dsDNA)
DNA 1: ATTTACTACTCGTTCTGGTGTTTCTCGT
DNA 2: ACGAGAAACACCAGAACGAGTAGTAAATTGGGCTTGA
As for B6, the binding result in the data set with Cas1;Cas2 [3] (single 3' overhang 9 nt with PAM) was “binds”.

B7: substrate 3 (dsDNA)
DNA 1: ATTTACTACTCGTTCTGGTGTTTCTCGT
DNA 2: ACGAGAAACACCAGAACGAGTAGTAAATTGGGC
Turning to B7, the binding result with Cas1;Cas2 [5] is recorded as “binds”.
